According to article PMC10776578, “Epstein-Barr virus-driven B cell lymphoma mediated by a direct LMP1-TRAF6 complex” (Nature Communications, 2024):

Experiments:
[1] = test system: LMP1-CL 37 B cell lymphoma; experiment: CRISPR/Cas9 knockout, cell survival (selection score) of lymphoma LMP1-CL 37; assay type: cell-based, mouse; set-up: key: Venus-neg d7 / mCherry+ d2, normalized to nontargeting gRNA (=1); conditions: for cell survival (selection score), Figure 6 b: CRISPR guides
Source text: (§1) The mouse LMP1 B cell tumors LMP1-CL 37 and 40 were derived from two B cell tumors arising in Rag2^KO;cγ^KO mice inoculated with primary tumor cells from Rag2^KO;cγ^KO mice reconstituted with fetal liver hematopoietic stem cells and progenitor cells from CD19-cre;R26-LMP1^STOPfl;CD3ε^KO animals as described. In these cells, a Venus expression cassette was targeted into the Rosa26 locus by CRISPR/CAS9 as described. Venus-LMP1 B cells were electroporated (Nucleofector, Lonza, human B cell program) with 1 µg of each of two pX330-mcherry-CAS9 vectors[83] encoding varying guide RNAs. In each approach, the first guide RNA (gRNA) targeted Venus while the second gRNA targeted either a nontargeting control sequence not present in the genome, or the gene of interest (GOI). The following gRNA sequences were used: nontargeting (NT) […], ICAM1 […], LMP1 #1 […], LMP1 #2 CCAAAACAGTAGCGCCAAG, LMP1 #3 AATCATCGGTAGCTTGTTG, TRAF6 #1 […], TRAF6 #2 […], TRAF6 #3 […]. The electroporation efficiency, measured as the frequency of mCherry-positive cells on day two after electroporation, was determined by flow cytometry with a Becton Dickinson LSRFortessa flow cytometer. On day seven, the loss of Venus was measured by flow cytometry as a surrogate marker for the number of surviving targeted cells. In the case of a lethal coexpressed GOI gRNA, Venus-negative cells will not survive, and their relative numbers are reduced. The given selection score is defined as the frequency of Venus-negative cells on day seven over the frequency of mCherry-positive cells on day two, normalized to the ratio observed with the nontargeting control gRNA. FACS data were analyzed by FlowJo software. The gating strategy is exemplified in Supplementary Fig. 5b. Animal housing and experiments to generate LMP1 lymphomas were approved by the Landesamt für Gesundheit und Soziales Berlin (G0049/15, G0374/13, and G0135/11). Mice were kept in groups in individually ventilated cages with a 12 h dark-light cycle at 22 ± 2 °C and 55 ± 5% relative humidity. They had access to food and water ad libitum, as well as to nest building material and shelter.

[2] = test system: LMP1-CL 40 B cell lymphoma; experiment: CRISPR/Cas9 knockout, cell survival (selection score) of lymphoma LMP1-CL 40; assay type: cell-based, mouse; set-up: key: Venus-neg d7 / mCherry+ d2, normalized to nontargeting gRNA (=1); conditions: for cell survival (selection score), Figure 6 b: CRISPR guides
Source text: as §1

HA-LMP1 [3] = experiment: Coimmunoprecipitation of HA-LMP1 with Flag-TRAF6 mutants in HEK293 cells; assay type: cell-based, Epstein-Barr virus
Description: Immunoblotting was essentially performed as described. Proteins were detected on nitrocellulose membranes (Bio-Rad, #1620115) using the following primary antibodies: α−6*His-tag (clone 4A4 or 2F12, source: antibody facility of the Helmholtz Center Munich, hybridoma supernatants were used at a 1:10 dilution)[75], α-TRAF6 (H-274, Santa Cruz Biotech., #sc-7221, used at 1:1000), α-HA-tag (12CA5, Sigma-Aldrich, #11583816001, used at 0.4 µg per mL), α-IκBα (C-21, Santa Cruz Biotech., #sc-371, used at 1:500) and α-Tubulin (B-5-1-2, Santa Cruz Biotech., #sc-23948, used at 1:500). Horseradish peroxidase-coupled antibodies were used as secondary antibodies (Cell Signalling Technology, #7074 or #7076, respectively, both used at 1:5000). ECL signals were captured on X-ray films (Agfa Healthcare) and quantified by densitometry using the ImageJ software. Uncropped scans of immunoblots indicating molecular weights are provided in Supplementary Fig. 6.
HEK293 cells were transfected with 1 µg of pRK5-Flag TRAF6 plasmids, 1 µg of pCMV-HA-LMP1 and 6 µg of pRK5 per 10 cm cell culture dish using PolyFect Transfection Reagent (Qiagen, #301107) in RPMI without supplements. Cells were incubated with the plasmid transfection mix for 4 h before the medium was changed to RPMI full medium. After 24 h, the cells were lysed in NP40-lysis buffer (50 mM HEPES pH 7.5, 150 mM NaCl, 5 mM EDTA, 0.5 mM sodium orthovanadate, 0.5 mM PMSF, 0.5 mM sodium molybdate, and cOmplete protease inhibitor cocktail). Lysates were cleared by centrifugation at 15000 x g for 10 min at 4 °C, and the protein concentration was adjusted to 1 mg per mL. For immunoprecipitation 4 mL of lysate was incubated with the α-Flag antibody 6F7 (Sigma-Aldrich, #F3165; covalently coupled to protein-G-Sepharose) for 1 h at 4 °C. The beads were pelleted at 15000 x g for 30 seconds at 4 °C, washed twice with NP40-lysis buffer, and analyzed by immunoblotting.

HA-LMP1 [4] = experiment: Confocal immunofluorescence colocalization of Flag-TRAF6 with HA-LMP1 in HeLa cells; assay type: cell-based, Epstein-Barr virus
Description: HeLa cells were seeded onto cover glasses (Thermo Scientific, Menzel) in 24-well plates one day before transfection. Cells were transfected at 50–60% confluency with 50 ng of pCMV-HA-LMP1 plasmids and 100 ng of pRK5-Flag-TRAF6 plasmids, adjusted to a total of 500 ng DNA per sample with pRK5 empty vector, using Lipofectamine 2000 (Thermo Fisher Scientific) according to the manufacturer’s instructions. At 24 h posttransfection, cells were washed once with PBS and fixed with 4% paraformaldehyde (Sigma-Aldrich) for 20 min at RT, followed by permeabilization with 0.3% (v/v) Triton X-100 and blocking with 5% (v/v) FBS in PBS for 1 h at RT. For immunostaining, the cells were incubated overnight with the primary antibodies α-HA (1:1000, clone 16B12, BioLegend) and α-DYKDDDDK (1:1000, clone L5, BioLegend) at 4 °C. The secondary antibodies goat α-mouse Alexa 488 (1:500, cross-adsorbed, Invitrogen, #A-11029) and goat α-rat Alexa 555 (1:500, cross-adsorbed, Invitrogen, #A-21434) were added for 1.5 h at RT. Microscope slides were sealed with cover glasses using Mowiol mounting medium (Sigma-Aldrich). Nuclei were stained with Hoechst 33258 (Sigma-Aldrich). All samples were imaged using a Leica TCS SP5 confocal microscope with 405 nm, 488 nm, 543 nm or 633 nm laser lines, scanning each channel separately under image capture conditions that eliminated channel overlap. For each single experiment, 10 transfected cells positive for both constructs were randomly captured as single-cell images for quantification. The resulting images were then analyzed using the Leica TCS SP5 colocalization analyses application (LAS AF Version 2.7.3.9723). Analysis was performed with default parameters.

GST-CD40_216-277 = experiment: AlphaScreen PPI, TRAF6 mutants binding to CD40; set-up: species or system human; TRAF6 binding to CD40 (AlphaScreen), mean: unit not given here
Description: (§2) Fig. 2 LMP1 binds to the receptor-interacting surface of TRAF6. a Mutations within the receptor-interacting surface of TRAF6 affect binding to LMP1. The TRAF6 mutants R392A, K469A, F471A, and Y473A were tested LMP1 in AlphaScreen PPI experiments with GST-LMP1_181-386. Data are mean values ± SD of three independent experiments. Statistics: one-way ANOVA. b TRAF6 R392A differentiates between CD40 and LMP1/RANK. AlphaScreen PPI experiments with GST-CD40_216-277. Data are mean values ± SD of three independent experiments. […] AlphaScreen PPI experiments with GST-RANK314-355. Data are mean values ± SD of four independent experiments. Statistics: one-way ANOVA. d TRAF6 mutants that fail to interact with LMP1 in PPI assays are also unable to bind cellular LMP1. HEK293 cells were co-transfected with HA-LMP1 and the indicated Flag-TRAF6 mutants. Flag-TRAF6 was immunoprecipitated (IP) via its Flag-tag and coprecipitated HA-LMP1 was detected on immunoblots by an α-HA antibody. Uncropped blots in Supplementary Fig. 6b. For statistical analysis LMP1 signals were digitalized and quantified (graph). Data are mean values ± SD of three independent experiments. […] TRAF6 recruitment is dependent on amino acids 371 − 386 of LMP1 (small panel). Confocal microscopy images show representative cells of three independent experiments. Quantitative data are mean values ± SD of ten randomly selected cells per transfection of one representative experiment (graph). Scale bars: 10 µm. Statistics: one-way ANOVA. p-values: *p ≤ 0.05, **p ≤ 0.01, ***p ≤ 0.001, ****p ≤ 0.0001. Source data and exact p-values in the Source Data file.
(§3) AlphaScreen experiments were performed in 96- or 384-well plates (Perkin Elmer, OptiPlate). In both assay formats, His-TRAF and GST-LMP1, GST-CD40, or GST-RANK proteins were incubated together in 40 µL of PBS (protein concentrations were calculated to the final reaction volume of 60 µL) supplemented with 0.5% BSA (Sigma, #A7030) and 0.1% Tween-20 (AppliChem, #A4974), for 1 h at room temperature (RT). If not indicated otherwise, standard protein concentrations were 300 nM for His-TRAF proteins and 100 nM for GST-LMP1 proteins. Ni-NTA-acceptor (Perkin Elmer, #6760619 C) and GST-acceptor (Perkin Elmer, # 6765300) beads were added each to a final concentration of 1–4 µg per mL in a final reaction volume of 60 µL and incubated for 1 h at RT in the dark. AlphaScreen PPI signals were measured in a CLARIOstar reader (BMG Labtech GmbH).

GST-LMP1_181-386 = experiment: AlphaScreen PPI, TRAF6 mutants binding to LMP1; set-up: species or system Epstein-Barr virus; TRAF6 binding to LMP1 (AlphaScreen), mean: unit not given here
Description: as §2, §3

GTTTGAGCTGAGCGAGATCG (expressed or natural sequence) [ICAM1 gRNA]
cell survival (selection score), Figure 6 b ([1]; replicate 1): 1.189 | cell survival (selection score), Figure 6 b ([1]; replicate 2): 1.169 | cell survival (selection score), Figure 6 b ([1]; replicate 3): 1.095 | cell survival (selection score), Figure 6 b ([1]; replicate 4): 0.9472 | cell survival (selection score), Figure 6 b ([1]; replicate 5): 1.162 | cell survival (selection score), Figure 6 b ([1]; replicate 6): 1.151 | cell survival (selection score), mean ([1]; mean (NT mean = 1), n = 9 LMP1, 10 TRAF6, 6 ICAM1): 1.119 | cell survival (selection score), Figure 6 b ([2]; replicate 1): 1.006 | cell survival (selection score), Figure 6 b ([2]; replicate 2): 1.221 | cell survival (selection score), Figure 6 b ([2]; replicate 3): 0.6632 | cell survival (selection score), Figure 6 b ([2]; replicate 4): 1.293 | cell survival (selection score), Figure 6 b ([2]; replicate 5): 1.126 | cell survival (selection score), mean ([2]; mean (NT mean = 1), n = 9 LMP1, 10 TRAF6, 5 ICAM1): 1.062

B1: K469A (protein, UniProt Q9Y4K3 1-522, looked up, variant K469A)
TNF receptor-associated …: MSLLNCENSCGSSQSESDCCVAMASSCSAVTKDDSVGGTASTGNLSSSFMEEIQGYDVEFDPPLESKYECPICLMALREAVQTPCGHRFCKACIIKSIRDAGHKCPVDNEILLENQLFPDNFAKREILSLMVKCPNEGCLHKMELRHLEDHQAHCEFALMDCPQCQRPFQKFHINIHILKDCPRRQVSCDNCAASMAFEDKEIHDQNCPLANVICEYCNTILIREQMPNHYDLDCPTAPIPCTFSTFGCHEKMQRNHLARHLQENTQSHMRMLAQAVHSLSVIPDSGYISEVRNFQETIHQLEGRLVRQDHQIRELTAKMETQSMYVSELKRTIRTLEDKVAEIEAQQCNGIYIWKIGNFGMHLKCQEEEKPVVIHSPGFYTGKPGYKLCMRLHLQLPTAQRCANYISLFVHTMQGEYDSHLPWPFQGTIRLTILDQSEAPVRQNHEEIMDAKPELLAFQRPTIPRNPAGFGYVTFMHLEALRQRTFIKDDTLLVRCEVSTRFDMGSLRREGFQPRSTDAGV
coprecipitated HA-LMP1 signal (densitometry), mean (HA-LMP1 [3]; HEK293, mean of n = 3): 17563327 | interaction of TRAF6 mutants with LMP1 in HEK293 cells (in words) (HA-LMP1 [3]; coimmunoprecipitation): no negative effect on the interaction | colocalization with HA-LMP1 (in words) (HA-LMP1 [4]; confocal microscopy): colocalized to a high extent with HA-LMP1 clusters | colocalization of TRAF6 with LMP1, mean (HA-LMP1 [4]; mean of ten cells): 98.27 | effect of TRAF6 mutation on binding to CD40 (in words) (GST-CD40_216-277; AlphaScreen PPI): did not affect the TRAF6 interaction with LMP1 or CD40 | TRAF6 binding to CD40 (AlphaScreen), mean (GST-CD40_216-277; Figure 2b, mean of n = 3): 89.86 | TRAF6 binding to CD40 (AlphaScreen) (GST-CD40_216-277; Figure 2b, relative to mean wt 100, replicate 1): 52.8 | TRAF6 binding to CD40 (AlphaScreen) (GST-CD40_216-277; Figure 2b, replicate 2): 105.6 | TRAF6 binding to CD40 (AlphaScreen) (GST-CD40_216-277; Figure 2b, replicate 3): 111.2 | effect of TRAF6 mutation on binding to LMP1 (in words) (GST-LMP1_181-386; AlphaScreen PPI): did not affect the TRAF6 interaction with LMP1 or CD40 | TRAF6 binding to LMP1 (AlphaScreen), mean (GST-LMP1_181-386; Figure 2a, mean of n = 3): 102.4 | TRAF6 binding to LMP1 (AlphaScreen) (GST-LMP1_181-386; Figure 2a, relative to mean wt 100, replicate 1): 73.0 | TRAF6 binding to LMP1 (AlphaScreen) (GST-LMP1_181-386; Figure 2a, replicate 2): 116.6 | TRAF6 binding to LMP1 (AlphaScreen) (GST-LMP1_181-386; Figure 2a, replicate 3): 117.5
